The results in this text go back to patent US20240000957A1 (published 2024).

For test [1], the target named is T1, Rat EphA2 (ligand binding), C-terminal polyHis (Rat).
T1 construct: In-house
Kind of test: FP competition vs Reference Compound C (Study 2).

The target in test [2] is T2, Human EphA2 (Ecto), C-terminal polyHis (Human, UniProt P29317 24-537).
T2 construct: extracellular domain; R&D systems 3035-A2 or in-house
Briefly: FP competition vs Reference Compound C (Study 2).

The target of another test is T3, Mouse EphA2 (Ecto) (Mouse, UniProt Q03145 26-538).
T3 construct: extracellular domain; Fluorescence polarisation assays; not shown: Fc fusion (R&D Systems 639-A2) or C-terminal polyHis (Sino Biological 50586-M08H)
Briefly: FP competition vs Reference Compound C (Study 2).

A further test has as its target T4, Rat EphA3 Fc fusion (Rat, UniProt O08680 21-541).
T4 construct: Bought Fc fusion; also called Sino Biologics 80465-R02H; not shown: Fc of the bought fusion
T4 sequence (looked up): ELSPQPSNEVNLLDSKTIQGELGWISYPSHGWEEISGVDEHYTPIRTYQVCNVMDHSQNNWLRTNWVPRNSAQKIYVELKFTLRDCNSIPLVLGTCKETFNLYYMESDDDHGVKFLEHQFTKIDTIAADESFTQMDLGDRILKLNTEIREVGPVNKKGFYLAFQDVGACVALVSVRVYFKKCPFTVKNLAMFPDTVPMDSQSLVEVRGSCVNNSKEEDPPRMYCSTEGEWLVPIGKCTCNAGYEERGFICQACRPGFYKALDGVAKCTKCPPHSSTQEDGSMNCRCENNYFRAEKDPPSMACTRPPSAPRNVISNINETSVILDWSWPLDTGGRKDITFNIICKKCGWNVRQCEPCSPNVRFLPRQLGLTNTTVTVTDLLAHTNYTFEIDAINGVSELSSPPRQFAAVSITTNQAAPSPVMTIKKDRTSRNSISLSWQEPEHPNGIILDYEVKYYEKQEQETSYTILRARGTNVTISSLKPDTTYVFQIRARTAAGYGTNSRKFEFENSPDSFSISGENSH
Kind of test: SPR, Fc-tagged protein captured by anti-human IgG.

The target of the next test is T5, Rat EphB1 Fc fusion (Rat, UniProt P09759 18-540, limits assumed).
T5 construct: Bought Fc fusion; also called R&D Systems 1596-B1; not shown: Fc of the bought fusion
T5 sequence (looked up): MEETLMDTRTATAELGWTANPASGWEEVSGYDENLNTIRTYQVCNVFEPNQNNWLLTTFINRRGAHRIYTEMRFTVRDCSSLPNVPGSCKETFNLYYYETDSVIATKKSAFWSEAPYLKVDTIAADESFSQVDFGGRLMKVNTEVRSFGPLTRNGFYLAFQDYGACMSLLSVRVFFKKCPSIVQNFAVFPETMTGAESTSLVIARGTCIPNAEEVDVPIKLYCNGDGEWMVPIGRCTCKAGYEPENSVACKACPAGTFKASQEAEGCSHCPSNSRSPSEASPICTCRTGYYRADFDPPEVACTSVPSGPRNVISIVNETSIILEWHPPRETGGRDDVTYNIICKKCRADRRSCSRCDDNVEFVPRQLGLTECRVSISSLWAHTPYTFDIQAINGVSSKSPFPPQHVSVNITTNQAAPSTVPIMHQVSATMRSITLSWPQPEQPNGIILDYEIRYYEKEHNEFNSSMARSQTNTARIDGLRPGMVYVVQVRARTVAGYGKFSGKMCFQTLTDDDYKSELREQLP
Briefly: SPR, Fc-tagged protein captured by anti-human IgG. A general note: Surface plasmon resonance follows binding to a sensor surface in real time, without labels.

Another test addresses T6, Mouse EphA4 Fc fusion (Mouse, UniProt Q03137 20-547).
T6 construct: Bought Fc fusion; also called Sino Biologics 50575-M02H; not shown: Fc of the bought fusion
Kind of test: SPR, Fc-tagged protein captured by anti-human IgG.

The next test deals with T7, Mouse EphA3 Fc fusion (Mouse, UniProt P29319 21-540).
T7 construct: Bought Fc fusion; also called Sino Biologics 51122-M02H; not shown: Fc of the bought fusion
T7 sequence (looked up): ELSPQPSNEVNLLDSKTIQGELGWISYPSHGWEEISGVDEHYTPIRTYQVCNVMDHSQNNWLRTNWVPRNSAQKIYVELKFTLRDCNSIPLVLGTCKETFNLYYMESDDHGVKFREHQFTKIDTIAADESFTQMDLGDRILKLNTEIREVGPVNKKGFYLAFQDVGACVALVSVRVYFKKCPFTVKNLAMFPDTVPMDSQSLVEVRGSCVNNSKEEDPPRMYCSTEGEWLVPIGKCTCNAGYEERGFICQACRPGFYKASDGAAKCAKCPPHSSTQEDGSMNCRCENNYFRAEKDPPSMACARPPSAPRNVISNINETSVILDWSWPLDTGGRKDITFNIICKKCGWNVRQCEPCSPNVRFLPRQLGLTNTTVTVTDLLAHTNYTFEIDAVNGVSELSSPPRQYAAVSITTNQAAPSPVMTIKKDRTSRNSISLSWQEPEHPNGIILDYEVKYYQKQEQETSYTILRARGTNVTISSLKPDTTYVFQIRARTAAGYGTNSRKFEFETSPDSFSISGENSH
Briefly: SPR, Fc-tagged protein captured by anti-human IgG.

In a further test the target is T8, Human EphA5 (Human, UniProt P54756 25-573, limits assumed, biotinylated, 3.1 mol biotin/monomer).
T8 construct: Bought protein; also called R&D Systems 3036-A5
Briefly: SPR, biotinylated protein on streptavidin.

Another test addresses T9, Human EphA6 Fc fusion (Human, UniProt Q9UF33 23-550, limits assumed).
T9 construct: Bought Fc fusion; also called R&D Systems 5606-A6; not shown: Fc of the bought fusion
T9 sequence (looked up): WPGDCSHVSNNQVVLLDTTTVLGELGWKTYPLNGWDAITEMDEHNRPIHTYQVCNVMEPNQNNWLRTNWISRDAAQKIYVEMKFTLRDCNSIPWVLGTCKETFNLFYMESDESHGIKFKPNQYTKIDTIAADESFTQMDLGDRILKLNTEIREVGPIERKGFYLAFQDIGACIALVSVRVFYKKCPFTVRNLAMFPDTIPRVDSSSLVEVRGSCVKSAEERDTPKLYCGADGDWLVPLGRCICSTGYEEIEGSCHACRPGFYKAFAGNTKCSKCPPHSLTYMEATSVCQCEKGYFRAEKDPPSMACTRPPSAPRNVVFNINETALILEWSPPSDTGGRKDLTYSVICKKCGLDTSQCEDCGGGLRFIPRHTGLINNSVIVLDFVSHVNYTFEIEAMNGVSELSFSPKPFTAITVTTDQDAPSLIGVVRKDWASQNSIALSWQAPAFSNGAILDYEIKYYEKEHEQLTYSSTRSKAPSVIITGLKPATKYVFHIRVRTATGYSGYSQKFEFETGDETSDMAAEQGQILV
Briefly: SPR, Fc-tagged protein captured by anti-human IgG.

T6 sequence (Q03137 20-547 limits assumed): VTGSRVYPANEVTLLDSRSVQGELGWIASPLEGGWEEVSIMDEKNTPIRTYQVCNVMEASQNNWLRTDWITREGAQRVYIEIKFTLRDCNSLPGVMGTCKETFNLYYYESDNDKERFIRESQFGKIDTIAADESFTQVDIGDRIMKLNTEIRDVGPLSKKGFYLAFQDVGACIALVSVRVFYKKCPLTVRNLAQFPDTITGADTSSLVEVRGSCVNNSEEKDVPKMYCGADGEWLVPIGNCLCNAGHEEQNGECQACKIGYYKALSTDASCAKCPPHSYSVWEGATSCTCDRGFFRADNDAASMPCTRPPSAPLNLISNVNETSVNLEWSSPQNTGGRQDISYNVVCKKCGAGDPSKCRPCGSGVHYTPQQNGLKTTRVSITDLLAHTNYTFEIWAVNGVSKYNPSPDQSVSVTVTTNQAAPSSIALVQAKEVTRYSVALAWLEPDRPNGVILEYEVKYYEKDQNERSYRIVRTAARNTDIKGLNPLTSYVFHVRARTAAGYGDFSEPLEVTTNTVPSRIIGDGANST
T8 sequence (P54756 25-573 limits assumed): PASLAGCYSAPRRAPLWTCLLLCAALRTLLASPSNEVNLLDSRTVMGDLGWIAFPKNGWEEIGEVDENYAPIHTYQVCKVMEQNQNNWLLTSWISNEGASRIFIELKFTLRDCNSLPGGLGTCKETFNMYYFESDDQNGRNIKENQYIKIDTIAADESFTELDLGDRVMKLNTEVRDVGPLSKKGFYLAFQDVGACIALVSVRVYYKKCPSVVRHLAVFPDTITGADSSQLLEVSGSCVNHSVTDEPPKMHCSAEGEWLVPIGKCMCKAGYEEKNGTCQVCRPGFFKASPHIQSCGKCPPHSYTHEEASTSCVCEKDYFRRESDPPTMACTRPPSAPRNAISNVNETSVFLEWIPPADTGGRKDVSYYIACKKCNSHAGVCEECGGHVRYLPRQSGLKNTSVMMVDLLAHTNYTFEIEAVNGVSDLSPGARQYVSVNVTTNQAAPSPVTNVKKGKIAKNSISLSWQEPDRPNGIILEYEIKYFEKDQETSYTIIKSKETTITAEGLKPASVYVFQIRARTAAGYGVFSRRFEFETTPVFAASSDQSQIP
T2 sequence (P29317 24-537): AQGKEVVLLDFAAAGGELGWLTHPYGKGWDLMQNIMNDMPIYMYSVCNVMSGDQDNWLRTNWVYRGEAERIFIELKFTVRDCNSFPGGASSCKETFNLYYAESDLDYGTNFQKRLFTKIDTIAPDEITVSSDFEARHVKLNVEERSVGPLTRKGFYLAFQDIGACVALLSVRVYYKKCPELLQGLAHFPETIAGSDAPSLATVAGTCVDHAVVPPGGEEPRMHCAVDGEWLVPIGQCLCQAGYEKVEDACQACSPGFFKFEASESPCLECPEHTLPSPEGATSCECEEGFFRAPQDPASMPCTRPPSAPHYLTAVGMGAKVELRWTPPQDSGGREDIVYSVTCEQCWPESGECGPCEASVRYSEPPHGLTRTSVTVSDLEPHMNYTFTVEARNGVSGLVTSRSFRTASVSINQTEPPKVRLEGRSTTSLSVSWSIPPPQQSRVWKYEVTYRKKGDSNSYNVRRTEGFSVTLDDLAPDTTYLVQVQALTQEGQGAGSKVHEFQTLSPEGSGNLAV
T3 sequence (Q03145 26-538): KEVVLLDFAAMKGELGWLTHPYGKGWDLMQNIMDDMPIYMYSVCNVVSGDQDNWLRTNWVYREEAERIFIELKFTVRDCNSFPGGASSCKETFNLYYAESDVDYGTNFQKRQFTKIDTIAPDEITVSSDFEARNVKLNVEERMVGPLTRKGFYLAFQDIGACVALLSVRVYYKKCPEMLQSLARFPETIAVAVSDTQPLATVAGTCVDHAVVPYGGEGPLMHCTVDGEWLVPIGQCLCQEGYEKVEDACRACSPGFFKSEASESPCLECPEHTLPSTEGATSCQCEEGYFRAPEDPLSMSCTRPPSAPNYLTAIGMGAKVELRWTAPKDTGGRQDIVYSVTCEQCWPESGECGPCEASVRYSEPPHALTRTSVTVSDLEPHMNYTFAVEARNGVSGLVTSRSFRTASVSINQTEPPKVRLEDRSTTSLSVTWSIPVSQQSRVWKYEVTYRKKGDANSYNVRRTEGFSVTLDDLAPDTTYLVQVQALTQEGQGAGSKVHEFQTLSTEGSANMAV

B1: BCY6033 (peptide)
peptide: AXDCPLVNPLCLHPGWTC
modifications: not fully specified; as BCY6014 (N-terminal (β-Ala)-Sar10; HArg; TATA scaffold on the 3 Cys) + ValCit-MMAE
notes: Bicycle drug conjugate (BDC)
The Ki is a dissociation constant, usually derived from enzyme kinetics or from competition with a known ligand. A high value points to weaker binding. On to B1, for which the Ki in test [1] amounted to 13.4 nM; in [2] it was 9.9 nM; with Mouse EphA2 (Ecto) it was 34.2 nM.

B2: BCY6033 (peptide)
peptide: AXDCPLVNPLCLHPGWTC
modifications: not fully specified; N-terminal (β-Ala)-Sar10 spacer precedes SEQ ID NO: 11; HArg (homoarginine) at residue 2 of SEQ ID NO: 11; three Cys cyclised on the TATA scaffold; ValCit-MMAE (MMAE-PABC-Cit-Val-glutarate) on the N-terminal amine
For the molecule B2, the binding result with Rat EphA3 Fc fusion is “no binding (tested: 20 µM)”; with Rat EphB1 Fc fusion, “no binding (tested: 20 µM)”; with Mouse EphA4 Fc fusion it was “no binding (tested: 20 µM)”; with Mouse EphA3 Fc fusion it was “no binding (tested: 20 µM)”; with Human EphA5, “no binding (tested: 25 µM)”; with Human EphA6 Fc fusion it was “no binding (tested: 20 µM)”.

B3: BCY6082 (peptide)
peptide: AXDCPLVNPLCLHPGWTC
modifications: not fully specified; as BCY6014 (N-terminal (β-Ala)-Sar10; HArg; TATA scaffold on the 3 Cys) + DM1-SS(SO3H)-
notes: Bicycle drug conjugate (BDC)
For the molecule B3, the Ki was 13.9 nM in [1], 10.5 nM in test [2] and 34.1 nM in the test with Mouse EphA2 (Ecto).

B4: BCY6082 (peptide)
peptide: AXDCPLVNPLCLHPGWTC
modifications: not fully specified; N-terminal (β-Ala)-Sar10 spacer precedes SEQ ID NO: 11; HArg (homoarginine) at residue 2 of SEQ ID NO: 11; three Cys cyclised on the TATA scaffold; DM1-SS(SO3H)- (DM1-SO3H-SPDB) on the N-terminal amine
For the molecule B4, the binding result was “no binding (tested: 20 µM)” in the test with Rat EphA3 Fc fusion; “no binding (tested: 20 µM)” with Rat EphB1 Fc fusion; “no binding (tested: 20 µM)” with Mouse EphA4 Fc fusion; “no binding (tested: 20 µM)” with Mouse EphA3 Fc fusion; “no binding (tested: 25 µM)” with Human EphA5; “no binding (tested: 20 µM)” with Human EphA6 Fc fusion.
